Data as given in patent publication US20190022244A1 (BIOASIS TECHNOLOGIES, published 2019).

Target: T1, human N-acetylated-alpha-linked acidic dipeptidase-like protein 2 (NAALADL2) (human, UniProt Q58DX5 1-795)
T1 construct: also called human NAALADL2 receptor; NAALADL2 polypeptide
T1 sequence: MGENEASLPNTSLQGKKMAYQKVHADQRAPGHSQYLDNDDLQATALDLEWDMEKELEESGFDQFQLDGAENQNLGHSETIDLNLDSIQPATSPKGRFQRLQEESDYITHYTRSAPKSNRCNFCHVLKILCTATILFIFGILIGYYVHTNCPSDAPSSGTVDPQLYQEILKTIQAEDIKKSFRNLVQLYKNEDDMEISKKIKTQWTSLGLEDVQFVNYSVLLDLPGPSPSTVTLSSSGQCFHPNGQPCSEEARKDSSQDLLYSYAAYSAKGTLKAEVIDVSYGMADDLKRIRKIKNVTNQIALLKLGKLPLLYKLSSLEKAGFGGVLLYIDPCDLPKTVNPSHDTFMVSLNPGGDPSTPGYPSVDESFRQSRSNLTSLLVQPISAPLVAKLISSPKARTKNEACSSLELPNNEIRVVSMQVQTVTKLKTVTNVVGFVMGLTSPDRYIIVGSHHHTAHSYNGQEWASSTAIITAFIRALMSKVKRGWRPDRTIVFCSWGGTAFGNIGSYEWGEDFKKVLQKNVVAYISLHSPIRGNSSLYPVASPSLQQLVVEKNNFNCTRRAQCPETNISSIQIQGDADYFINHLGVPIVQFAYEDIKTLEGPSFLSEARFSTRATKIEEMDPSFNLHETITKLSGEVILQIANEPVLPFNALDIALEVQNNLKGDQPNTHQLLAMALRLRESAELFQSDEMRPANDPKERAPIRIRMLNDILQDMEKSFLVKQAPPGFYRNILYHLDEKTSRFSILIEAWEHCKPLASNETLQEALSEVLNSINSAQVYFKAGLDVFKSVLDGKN
Assay: EGS cross-linking on U87 cells, then reciprocal immunoprecipitation (anti-MTf L235 or anti-NAALADL2 N18+L18) and immunoblot with the complementary antibody
Description: Cells were pulsed with 1 μl of 7.1 mg/ml a human melanotransferrin (MTf) peptide ([…]; SEQ ID NO:2) and 4 μl of NTA-Fe, and shaken gently at 4° C. for 20 minutes to allow binding. The supernatant was discarded and the cells were washed 2× with 5 ml of PBS at 4° C. Cross-linker solution (6 ml of 3.7 mM EGS; Thermo Scientific, Cat #87786) was added to each flask, and the cells were shaken gently at 4° C. for 2 hours.
The supernatant was discarded, and 2 ml of RIPA buffer with 1X HALT protease inhibitor cocktail was added to lyse the cells and quench the cross-linker. The cells were shaken vigorously at room temperature for 5 minutes, and a cell scraper was used to lyse and completely detach the cell lysate from the plate.

binding result: binds
B1: human melanotransferrin (MTf) peptide (DSSHAFTLDELR; SEQ ID NO:2) (peptide)
peptide: DSSHAFTLDELR
notes: 12-residue fragment of human melanotransferrin (p97); It was pulsed onto U87 cells together with NTA-Fe; also called human MTf peptide; human MTf polypeptide
